The values below come from PMC4972647 (Nature structural & molecular biology, 2016).

What all share (assay): BLI
In general terms: In BLI a coated tip is dipped into the sample, and binding shifts an interference pattern.

The target of experiment [1] is NEDD8-conjugated Ubc12 (Ubc12(C111S)^N8-His) (human) (UniProt P61081).
Experiment [2] addresses N-terminal GST-tagged GlyRS (human).
The target of experiment [3] is T1, GST-APPBP1 (human, UniProt Q13564 1-534).
T1 sequence: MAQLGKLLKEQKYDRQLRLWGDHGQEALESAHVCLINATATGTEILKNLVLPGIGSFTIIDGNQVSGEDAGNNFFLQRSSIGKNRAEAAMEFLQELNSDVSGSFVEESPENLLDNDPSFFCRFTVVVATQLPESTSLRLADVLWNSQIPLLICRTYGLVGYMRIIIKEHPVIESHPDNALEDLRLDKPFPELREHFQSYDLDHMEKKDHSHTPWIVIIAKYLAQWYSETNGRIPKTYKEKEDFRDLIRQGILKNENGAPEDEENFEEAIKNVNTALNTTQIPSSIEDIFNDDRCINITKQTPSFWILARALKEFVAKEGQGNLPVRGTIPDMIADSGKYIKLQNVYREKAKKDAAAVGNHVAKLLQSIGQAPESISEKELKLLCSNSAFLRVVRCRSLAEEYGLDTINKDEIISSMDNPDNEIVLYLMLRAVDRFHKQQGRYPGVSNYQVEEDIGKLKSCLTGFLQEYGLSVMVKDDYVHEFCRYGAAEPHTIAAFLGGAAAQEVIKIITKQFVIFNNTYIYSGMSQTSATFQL

In general, Kd refers to a measure of binding affinity in units of concentration. A lower Kd goes with higher affinity.

Molecule G526R GlyRS (enzyme) displayed a Kd in experiment [1] of 39.5 nM.
For “NEDD8-conjugated Ubc12 (Ubc12(C111S)^N8-His) (from UniProt P61081;Q15843) (complex)”, the Kd in experiment [2] is 4.09 nM.
Tag-free wild type human GlyRS (enzyme) showed a Kd in experiment [1] of 3.21 nM.
In the case of “purified recombinant human NEDD8 (from UniProt Q15843 1-76) (natural protein)”, the Kd in experiment [2] was 126 nM.
Same read-out and setting: for “purified recombinant human Ubc12 (from UniProt P61081 1-183) (enzyme)” the value was 488 nM.
For the molecule “Δ84-93 GlyRS (F84-L93 replaced by GGG) (from UniProt P41250-2 94-685) (enzyme)”, in experiment [1], the Kd was 27 nM. This lies in the double-digit nanomolar range.
On the same count and under the same terms, for “ΔInsertion1 GlyRS (F147-F224 replaced by GSGSGG) (from UniProt P41250-2 225-685) (enzyme)” the value was 4.32 nM.

B1: ABD (V541-E685) of human GlyRS (domain or fragment)
chain: VREGDEQRTFFSFPAVVAPFKCSVLPLSQNQEFMPFVKELSEALTRHGVSHKVDDSSGSIGRRYARTDEIGVAFGVTIDFDTVNKTPHTATLRDRDSMRQIRAEISELPSIVQDLANGNITWADVEARYPLFEGQETGKKETIEE
For the molecule B1, the binding result in experiment [3] is “binds”.
